This note sets out measurements from US20240000938A1 (published 2024).

Test in all cases: activation reporter or marker
The target in assay [1] is T1, mH-Y (MiHA-Y) peptide on H-2Db (mouse).
T1 peptide: KCSRNRQYL

The target of assay [2] is T2, HA-1 variant H, HA-1(H); Rho GTPase activating protein 45 (HMHA1) peptide on HLA-A*02:01 (human).
T2 peptide: VLHDDLLEA

In assay [3] the target is T3, HA-1(R), allelic variant; Rho GTPase activating protein 45 (HMHA1) peptide on HLA-A*02:01 (human).
T3 peptide: VLRDDLLEA

B1: H-Y TCR Jb2.3L (TCR, V domains shown)
Valpha: AQSVDQPDAHVTLSEGASLELRCSYSYSAAPYLFWYVQYPGQSLQFLLKYITGDTVVKGTKGFEAEFRKSNSSFNLKKSPAHWSDSAKYFCALEGQDQGGSAKLIFGEGTKLTVSS
Vbeta: EAAVTQSPRNKVAVTGGKVTLSCNQTNNHNNMYWYRQDTGHGLRLIHYSYGAGSTEKGDIPDGYKASRPSQENFSLILELATPSQTSVYFCASGDNSAETLYFGPGTRLLVL
Take B1: the binding result in assay [1] is on record as “recognises”.

B2: KP7 HA-1H TCR (TCR, V domains shown)
Valpha: KNEVEQSPQNLTAQEGEFITINCSYSVGISALHWLQQHPGGGIVSLFMLSSGKKKHGRLIATINIQEKHSSLHITASHPRDSAVYICAVRSVSGAGSYQLTFGKGTKLSVIP
Vbeta: DTGVSQNPRHKITKRGQNVTFRCDPISEHNRLYWYRQTLGQGPEFLTYFQNEAQLEKSRLLSDRFSAERPKGSFSTLEIQRTEQGDSAMYLCASSIDSFNEQFFGPGTRLTVL
In the case of B2, the values for the binding result in assay [2] and in assay [3] were “recognises” and “no recognition”, respectively.
